# Source: article PMC2887947
# Read-outs that look alike come from different tables or passages of the source.
# B1: dsDNA 70% GC (83 bp) (dsDNA)
# DNA 1: GCGGTGGACGGCTGGGTCGGGTGGTGAGTGGGTTGCGATGGAGGTGGTGGGCTAGGGGGCTTAGGGGGGAGTCGGTGGTGG
# DNA 2: CCACCACCGACTCCCCCCTAAGCCCCCTAGCCCACCACCTCCCATCGCCAACCCACTCACCACCCGACCCAGCCGTCCACCGC
# B2: Holliday junction (HJ) (structured_DNA)
# DNA 1: GCCGTGATCACCAATGCAGATTGACGAACCTTTGCCCACGT
# DNA 2: GACGTGGGCAAAGGTTCGTCAATGGACTGACAGCTGCATGG
# DNA 3: GCCATGCAGCTGTCAGTCCATTGTCATGCTAGGCCTACTGC
# DNA 4: GGCAGTAGGCCTAGCATGACAATCTGCATTGGTGATCACGG
# B3: DNA replication fork (structured_DNA)
# DNA 1: GACGTGGGCAAAGGTTCGTCAATGGACTGACAGCTGCATGG
# DNA 2: GCCATGCAGCTGTCAGTCCATTGTCATGCTAGGCCTACTGC
# DNA 3: GCAGTAGGCCTAGCATGA
# DNA 4: CGAACCTTTGCCCACGTC
# B4: Y-shaped junction (structured_DNA)
# DNA 1: GACGTGGGCAAAGGTTCGTCAATGGACTGACAGCTGCATGG
# DNA 2: GCCATGCAGCTGTCAGTCCATTGTCATGCTAGGCCTACTGC
# B5: dsDNA 40% GC (83 bp) (dsDNA)
# DNA 1: GTACTATACGGTTGTACAGTGTTGTTAGTGAGTTGAAGATTGGAAGTAGTTTGCTAGGTGTCTTAGGAGAGAATCGTTAGTGT
# DNA 2: ACACTAACGATTCTCTCCTAAGACACCTAGCAAACTACTTCCAATCTTCAACTCACTAACAACACTGTACAACCGTATAGATC
# Experiments:
# Experiment in all cases: EMSA
# M. tuberculosis H-NS [1] = biological target: T1, M. tuberculosis H-NS (Mycobacterium tuberculosis H37Rv, UniProt I6YHB0 1-134)
# T1 sequence: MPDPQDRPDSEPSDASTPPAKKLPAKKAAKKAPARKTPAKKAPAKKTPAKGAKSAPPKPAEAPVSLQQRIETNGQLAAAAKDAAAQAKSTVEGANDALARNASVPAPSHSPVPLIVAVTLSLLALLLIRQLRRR
# M. tuberculosis H-NS [2] = biological target: T1, M. tuberculosis H-NS; remark: listed apart in the source
# E. coli H-NS [3] = biological target: T2, E. coli H-NS (Escherichia coli, UniProt P0ACF8 1-137)
# T2 sequence: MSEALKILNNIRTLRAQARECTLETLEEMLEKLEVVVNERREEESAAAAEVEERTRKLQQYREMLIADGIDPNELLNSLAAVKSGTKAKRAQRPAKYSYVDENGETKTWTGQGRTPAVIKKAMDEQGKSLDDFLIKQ
# E. coli H-NS [4] = biological target: T2, E. coli H-NS; remark: listed apart in the source
# M. tuberculosis H-NS [5] = biological target: T1, M. tuberculosis H-NS; remark: listed apart in the source
# M. tuberculosis H-NS [6] = biological target: T1, M. tuberculosis H-NS; remark: listed apart in the source
binder,measurement,setting,value
B1,binding signal,M. tuberculosis H-NS [1],~3 fold higher concentration for 50% binding than 40% GC dsDNA
B2,Kd,M. tuberculosis H-NS [2],~32 nM
same,binding result,E. coli H-NS [3],binds
B3,binding result,E. coli H-NS [4],binds
same,binding signal,M. tuberculosis H-NS [5],~6 fold higher Kd than HJ
B4,binding signal,M. tuberculosis H-NS [6],~7 fold higher Kd than HJ
B5,binding result,M. tuberculosis H-NS [2],binds
